Here are results for 13 molecules from publication PMC4999541 (mBio, 2016).

In assay [1] the target is T1, PP1α7–330 (Homo sapiens, UniProt P62136).
T1 construct: PP1α7–330 and PPZ1cat were purified by the method described above; made in house; host or cells: E. coli
The assay is described as follows: Pulldown assay with PP1α. The following applies: compared to wild-type spinophilin; in words. The assay is classed as binding. On the procedure: (§1) GADD34_552–567 was purchased. PNUTS394–433 and spinophilin417–602 were purified according to a method described previously ([19], [27]). […]. PP1α7–330 and PPZ1cat were purified by the method described above but retained the His tag. After SEC (20 mM Tris [pH 8.0], 500 mM NaCl, 0.5 mM TCEP, 1 mM MnCl2), 50% (vol/vol) glycerol was added to both PP1α7–330 and PPZ1cat. The final concentrations of the proteins were adjusted to 5 µM. […] of each PP1 regulator was added into 500 µl of PP1α7–330 or PPZ1cat. The mixture was incubated under rocking (4°C) for 60 min to allow for complex formation. A 15-μl bed volume of Ni-NTA resin (GE Healthcare) was added into tubes, and the mixture was incubated at 4°C for 60 min. The beads were pelleted by centrifugation (2000 × g) and washed three times with 500 µl of SEC buffer. Forty microliters of SDS loading buffer was added to the beads, and the samples were boiled at 80°C for 5 min and analyzed on NuPAGE 4 to 12% bis-Tris gels. Gels were stained overnight with SYPRO ruby protein gel stain (Life Technologies) according to the manufacturer’s protocols and scanned using a Typhoon 9410 laser scanner (GE Healthcare) with an excitation wavelength of 457 nm and emission filter of 610 nm following destaining. Densitometry was performed using ImageQuant TL 7.0 software for quantification of the band intensity.

For assay [2], the target named is T2, full-length C. albicans PPZ1 (Candida albicans) (UniProt Q59U06).
T2 sequence: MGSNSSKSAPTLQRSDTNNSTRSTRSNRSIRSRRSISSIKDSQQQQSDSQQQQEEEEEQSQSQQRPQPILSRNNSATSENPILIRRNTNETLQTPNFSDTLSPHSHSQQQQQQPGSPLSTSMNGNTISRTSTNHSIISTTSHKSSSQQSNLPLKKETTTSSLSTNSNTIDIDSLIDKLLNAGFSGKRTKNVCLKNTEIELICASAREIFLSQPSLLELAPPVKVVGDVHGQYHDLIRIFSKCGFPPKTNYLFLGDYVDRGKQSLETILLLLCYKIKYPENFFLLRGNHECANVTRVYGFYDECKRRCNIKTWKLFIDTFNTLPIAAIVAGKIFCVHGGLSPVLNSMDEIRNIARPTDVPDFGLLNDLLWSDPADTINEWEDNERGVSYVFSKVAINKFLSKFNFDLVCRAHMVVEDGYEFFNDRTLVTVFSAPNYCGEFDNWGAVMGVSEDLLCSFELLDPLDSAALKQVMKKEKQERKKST

Assay [3] deals with catalytic subunit of rabbit skeletal muscle protein phosphatase 1 (rabbit) (UniProt P62139).
Target sequence in this assay (P62139 whole entry, the tested form may be a part): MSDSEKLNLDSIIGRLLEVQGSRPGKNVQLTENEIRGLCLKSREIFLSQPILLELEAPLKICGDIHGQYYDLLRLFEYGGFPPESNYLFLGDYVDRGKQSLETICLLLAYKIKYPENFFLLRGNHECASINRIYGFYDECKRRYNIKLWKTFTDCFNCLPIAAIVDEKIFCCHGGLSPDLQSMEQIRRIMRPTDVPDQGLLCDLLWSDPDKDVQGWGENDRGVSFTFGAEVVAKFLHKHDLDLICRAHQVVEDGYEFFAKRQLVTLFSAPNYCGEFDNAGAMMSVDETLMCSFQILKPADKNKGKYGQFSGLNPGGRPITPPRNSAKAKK
Assay [4] concerns the target human PP1α(7-330), His tag retained (human) (UniProt P62136).
Assay [5] concerns the target C. albicans PPZ1 C-terminal catalytic domain (aa 171 to 484), His6 tag removed (Candida albicans) (UniProt Q59U06).
The target of assay [6] is T3, PPZ1cat (Candida albicans, UniProt C4YM68). Nature of the assay: Pulldown assay with PPZ1cat. The assay is classed as binding. The following applies: for Less binding in pulldown by PPZ1 compared to PP1α: densitometry of the gel. On the procedure:
as §1

In assay [7] the target is T4, PP1α (Homo sapiens, UniProt P62136). The following applies: cited from earlier work.
Target sequence in this assay (P62136 2-330): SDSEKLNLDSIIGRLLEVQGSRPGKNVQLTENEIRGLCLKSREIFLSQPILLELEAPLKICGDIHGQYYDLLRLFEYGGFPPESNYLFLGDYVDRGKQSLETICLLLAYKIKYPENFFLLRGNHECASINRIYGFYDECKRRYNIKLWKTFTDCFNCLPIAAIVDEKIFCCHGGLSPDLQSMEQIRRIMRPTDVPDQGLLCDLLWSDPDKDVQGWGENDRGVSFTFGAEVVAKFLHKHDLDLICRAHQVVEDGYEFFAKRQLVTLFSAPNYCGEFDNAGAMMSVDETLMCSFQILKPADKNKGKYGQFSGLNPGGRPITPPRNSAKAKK
In assay [8] the target is T3, PPZ1cat. The assay is classed as biochemical.
The subject of assay [9] is PP1c. The assay is classed as biochemical, rabbit.
For assay [10], the target named is PPZ1FL (Candida albicans, UniProt C4YM68). The assay is classed as biochemical.
For assay [11], the target named is T3, PPZ1cat. Nature of the assay: Phosphatase inhibition assay, pNPP substrate, PPZ1cat. The assay is classed as biochemical.
Assay [12] concerns the target T4, PP1α. Nature of the assay: Phosphatase inhibition assay, pNPP substrate, PP1α. Also on record: made in house; host or cells: E. coli. It counts as biochemical.
Target sequence in this assay (P62136 whole entry): as the sequence (P62139 whole entry, the tested form may be a part) above
The target in assay [13] is T4, PP1α. The following applies: cited from earlier work. This is another data set of the same source.
Target sequence in this assay (P62136 2-330): as the sequence (P62136 2-330) above
Assay [14] deals with T4, PP1α. The following applies: cited from earlier work. The source holds these as a separate data set.
Target sequence in this assay (P62136 2-330): as above
Assay [15] concerns the target T5, C. albicans PPZ1 C-terminal catalytic domain (aa 171 to 484), His6 tag removed (Candida albicans, UniProt Q59U06 169-482).
T5 construct: also called PPZ1cat; CaPPZ1
T5 sequence: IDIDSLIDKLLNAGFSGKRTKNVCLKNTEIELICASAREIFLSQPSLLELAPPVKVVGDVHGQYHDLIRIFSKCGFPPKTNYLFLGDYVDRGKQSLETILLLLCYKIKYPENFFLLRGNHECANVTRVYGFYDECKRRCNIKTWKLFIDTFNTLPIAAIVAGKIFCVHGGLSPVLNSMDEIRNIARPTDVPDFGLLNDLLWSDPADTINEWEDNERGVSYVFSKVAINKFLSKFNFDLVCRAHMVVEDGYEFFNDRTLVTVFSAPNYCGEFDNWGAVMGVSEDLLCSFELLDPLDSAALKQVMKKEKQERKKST
Nature of the assay: ITC. The following applies: both partners purified.

For assay [16], the target named is T2, full-length C. albicans PPZ1 (Candida albicans). The source holds these as a separate data set.
Assay [17] deals with catalytic subunit of rabbit skeletal muscle protein phosphatase 1 (rabbit) (UniProt P62139). The source holds these as a separate data set.
Target sequence in this assay (P62139 2-330): as the sequence (P62136 2-330) above
Assay [18] addresses C. albicans PPZ1 C-terminal catalytic domain (aa 171 to 484), His6 tag removed (Candida albicans) (UniProt Q59U06). The source holds these as a separate data set.

Read-outs that look alike come from different tables or passages of the source. Numbered stars: 1 amine (or outer) side, 2 acyl side, 3 side chain; on linkers, the order of the positions; unused ones are H or OH. Bridge positions count the residues as written; N and C are the ends. Square brackets hold non-standard residues; d marks the D form. Peptide text beside a SMILES is read from it. Adda = CO[C@@H](Cc1ccccc1)[C@@H](C)/C=C(C)/C=C/[C@H](N[*:1])[C@H](C)C(=O)[*:2]; dAsp(3S-Me) = C[C@H](C(=O)[*:3])[C@@H](N[*:1])C(=O)[*:2]; d(γGlu) = O=C(O)[C@@H](CCC(=O)[*:2])N[*:1]; NMeDha = C=C(NC)C(=O)O

T3 sequence (C4YM68 entry or part of it): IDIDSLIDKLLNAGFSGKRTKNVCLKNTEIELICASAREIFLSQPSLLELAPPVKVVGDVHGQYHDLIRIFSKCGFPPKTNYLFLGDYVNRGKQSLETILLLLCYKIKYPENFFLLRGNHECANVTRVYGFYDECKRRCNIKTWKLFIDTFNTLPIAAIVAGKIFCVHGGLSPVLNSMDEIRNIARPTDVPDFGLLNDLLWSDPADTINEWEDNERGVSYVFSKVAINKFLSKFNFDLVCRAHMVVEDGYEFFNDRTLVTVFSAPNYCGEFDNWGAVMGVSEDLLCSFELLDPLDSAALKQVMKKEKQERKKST
T1 sequence (P62136 7-330): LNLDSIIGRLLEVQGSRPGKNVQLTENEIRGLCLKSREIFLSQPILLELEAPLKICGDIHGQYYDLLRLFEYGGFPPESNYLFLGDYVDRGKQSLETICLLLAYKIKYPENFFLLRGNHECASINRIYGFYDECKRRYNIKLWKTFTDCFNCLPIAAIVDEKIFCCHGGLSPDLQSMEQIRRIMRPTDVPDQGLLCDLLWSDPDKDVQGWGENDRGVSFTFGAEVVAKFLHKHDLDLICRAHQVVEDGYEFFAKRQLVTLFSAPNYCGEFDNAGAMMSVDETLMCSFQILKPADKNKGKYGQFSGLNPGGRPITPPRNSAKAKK
PPZ1FL, sequence (C4YM68 entry or part of it): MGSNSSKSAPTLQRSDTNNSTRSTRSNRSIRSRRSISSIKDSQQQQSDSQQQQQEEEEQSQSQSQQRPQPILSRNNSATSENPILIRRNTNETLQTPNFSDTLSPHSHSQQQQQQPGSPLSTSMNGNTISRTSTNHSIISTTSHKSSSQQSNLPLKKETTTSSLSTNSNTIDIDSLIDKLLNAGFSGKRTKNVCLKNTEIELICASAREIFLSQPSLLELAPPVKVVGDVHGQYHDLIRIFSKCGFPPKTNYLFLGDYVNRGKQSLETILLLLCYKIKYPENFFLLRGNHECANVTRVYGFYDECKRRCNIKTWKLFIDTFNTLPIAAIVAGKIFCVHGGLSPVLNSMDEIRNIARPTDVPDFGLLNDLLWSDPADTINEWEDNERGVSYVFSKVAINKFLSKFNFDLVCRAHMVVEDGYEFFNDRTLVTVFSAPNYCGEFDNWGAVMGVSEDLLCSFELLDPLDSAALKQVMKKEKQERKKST
human PP1α(7-330), His tag retained (human), sequence (P62136 7-330): as the sequence (P62136 7-330) above

Turning to “SpinoR469D: spinophilin417–602 variant with Arg motif mutation R469D”, in assay [1], the “Amount of spinophilin variant pulled down by PP1α” value was “reduces the amount of spinophilin pulled down”.

Consider microcystin-LR (peptide), for which the values for the inhibition of phosphatase activity, 32P-labeled MLC20 (pMLC) substrate, IC50 in assay [2], in assay [3] and in assay [5] were 0.96 nM, 0.43 nM and 0.72 nM, respectively. For the same molecule, the inhibition of phosphatase activity, pNPP substrate, IC50 is 4.4 nM in assay [4] and 11.8 nM in assay [5].

As to “GADD34_552–567: purchased peptide, minimal PP1-binding domain of regulator GADD34 with RVxF and ΦΦ motifs (KARKVRFSEKVTVHFL)”, the “Binding in pulldown by PPZ1cat compared to PP1α” value in [6] (in words) was “less effectively”.

In general, Kd refers to the concentration at which binding is half-saturated. Consider PNUTS 394-433 (from UniProt Q96QC0), for which the Kd in assay [7] was 9.3 nM.

As a reminder, the IC50 is the concentration that inhibits the measured activity by half. Consider `C=C1C(=O)N[C@H](C)C(=O)N[C@@H](CC(C)C)C(=O)N[C@@H](C(=O)O)[C@H](C)C(=O)N[C@@H](CCCNC(=N)N)C(=O)N[C@@H](/C=C/C(C)=C/[C@H](C)[C@H](Cc2ccccc2)OC)[C@H](C)C(=O)N[C@@H](C(=O)O)CCC(=O)N1C` [MC, microcystin-LR] (R[Adda][d(γGlu)][NMeDha][dA]L[dAsp(3S-Me)]-OH; lactam N-7), for which the IC50 in assay [8] (read-out: IC50 of MC) came out at 0.72 nM; in assay [9], 0.43 nM; in assay [10] (read-out: IC50 of MC), 0.96 nM; in assay [11] it was 11.8 nM; in assay [12] it was 4.4 nM.

For “PNUTS394–433: minimal PP1-binding domain of PP1 regulator PNUTS (RVxF-ΦΦ-Arg) (RKRKTVTWPEEGKLREYFYFELDETERVNVNKIKDFGEAA)”, the “Less binding in pulldown by PPZ1 compared to PP1α” value in assay [6] is given as ~ 85%.

Regarding “spinophilin 417-602 (from UniProt O35274)”, the Kd in [13] was 8.7 nM.

For the molecule “spinophilin417–602: minimal PP1-binding domain of PP1 regulator spinophilin”, the “Less binding in pulldown by PPZ1 compared to PP1α” value in assay [6] was ~ 85%.

On to “SpinoR469E: spinophilin417–602 variant with Arg motif mutation R469E”, for which the “Amount of spinophilin variant pulled down by PP1α” value in assay [1] was “reduces the amount of spinophilin pulled down”.

On to GADD34 552-567 (from UniProt O75807), for which, in assay [14], the Kd was 62 nM.

For KARKVRFSEKVTVHFL (peptide, UniProt O75807 552-567, looked up, also called G34) [GADD34(552-567) peptide], the dissociation constant (Kd) in [15] came out at 1150 ± 90 nM.

B1: recombinant 6×His-tagged inhibitor-2 (natural protein)
chain: MAASTASHRPIKGILKNKTSTTSSMVASAEQPRGNVDEELSKKSQKWDEMNILATYHPADKDYGLMKIDEPSTPYHSMMGDDEDACSDTEATEAMAPDILARKLAAAEGLEPKYRIQEQESSGEEDSDLSPEEREKKRQFEMKRKLHYNEGLNIKLARQLISKDLHDDDEDEEMLETADGESMNTEESNQGSTPSDQQQNKLRSS
As to B1, the inhibition of phosphatase activity by increasing concentrations of I-2, IC50 was 278 nM in assay [16], 12 nM in [17] and 7 nM in assay [18].

B2: I-2: inhibitor-2, a specific protein inhibitor of PP1; recombinant 6×His-tagged (protein)
chain: AASTASHRPIKGILKNKTSTTSSMVASAEQPRGNVDEELSKKSQKWDEMNILATYHPADKDYGLMKIDEPSTPYHSMMGDDEDACSDTEATEAMAPDILARKLAAAEGLEPKYRIQEQESSGEEDSDLSPEEREKKRQFEMKRKLHYNEGLNIKLARQLISKDLHDDDEDEEMLETADGESMNTEESNQGSTPSDQQQNKLRSS
With B2, the IC50 in assay [8] (PPZ1cat, recombinant I-2, read-out: IC50 of I-2) worked out at 7 nM; in [10] (PPZ1FL, includes N-terminal IDP domain, read-out: IC50 of I-2), 278 nM.
